Values belong to the binder of their own block, whether it stands above or below them.
Experiments:
[1] = target: T1, biotinylated extracellular domains of human CD123 (uniprot ID 26951), Fc format (human, UniProt P26951 19-305, biotinylated); assay: crude extract HTRF, 6 nM biotinylated CD123
T1 construct: extracellular domain
T1 sequence (looked up): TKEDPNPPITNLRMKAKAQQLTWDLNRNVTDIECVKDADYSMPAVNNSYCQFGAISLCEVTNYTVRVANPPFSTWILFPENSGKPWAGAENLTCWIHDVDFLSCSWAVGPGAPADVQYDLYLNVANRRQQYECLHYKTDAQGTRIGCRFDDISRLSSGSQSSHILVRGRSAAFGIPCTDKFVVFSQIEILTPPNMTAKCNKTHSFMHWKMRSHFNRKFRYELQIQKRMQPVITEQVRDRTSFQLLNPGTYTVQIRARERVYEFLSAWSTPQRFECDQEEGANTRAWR
Source text: (§1) Individual selected ankyrin repeat proteins specifically binding to hCD123 in solution were identified by a Homogeneous Time Resolved Fluorescence (HTRF) assay using crude extracts of ankyrin repeat protein-expressing Escherichia coli cells using standard protocols. Ankyrin repeat protein clones selected by ribosome display were cloned into derivatives of the pQE30 (Qiagen) expression vector (pMPDV045), which contains a C-terminal CD3 binding designed ankyrin repeat protein followed by a Flag tag, transformed into E. coli XL1-Blue (Stratagene), plated on LB-agar (containing 1% glucose and 50 μg/ml ampicillin) and then incubated overnight at 37° C. […]
The extract of each lysed clone was applied as a 1:500 dilution (final concentration) in PBSTB (PBS supplemented with 0.1% Tween 20® and 0.2% (w/v) BSA, pH 7.4) together with 6 nM (final concentration) biotinylated human or cyno CD123, 1:300 (final concentration) of anti-6His-D2 HTRF antibody-FRET acceptor conjugate (Cisbio) and 1:300 (final concentration) of anti-strep-Tb antibody FRET donor conjugate (Cisbio) to a well of 384 well plate and incubated for 120 minutes at RT. The HTRF was read-out on a Tecan M1000 using a 340 nm excitation wavelength and a 665±10 nm emission filter.

[2] = target: T2, extracellular domain of human CD70 (SEQ ID NO: 89), hCD70-Fc-trimer, ACRO Biosystems (human, UniProt P32970 52-193, chemically biotinylated where the biotinylated form was used); assay: crude extract HTRF, 2 nM biotinylated hCD70
T2 construct: also called human CD70-Fc-trimer; Bio.CD70
T2 sequence: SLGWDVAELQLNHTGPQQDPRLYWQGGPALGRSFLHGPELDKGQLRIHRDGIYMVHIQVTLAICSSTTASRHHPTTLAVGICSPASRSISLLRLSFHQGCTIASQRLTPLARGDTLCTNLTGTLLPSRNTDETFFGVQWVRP
Source text: as §1, with “hCD70” for “hCD123”, “(pMPDV25),” for “(pMPDV045), which contains a C-terminal CD3 binding designed ankyrin repeat protein followed by a Flag tag,”, “C. Single colonies were picked into a 96 well plate (each clone in a single well) containing 160 μl growth medium (TB containing 1% glucose and 50 μg/ml ampicillin) and incubated overnight at 37° C., shaking at 800 rpm.” for “C.”
The extract of each lysed clone was applied as a 1:2000 dilution (final concentration) in PBSTB (PBS supplemented with 0.1% Tween 20® and 0.2% (w/v) BSA, pH 7.4) together with 2 nM (final concentration) biotinylated hCD70, 1:400 (final concentration) of anti-strep-Tb HTRF antibody-FRET donor conjugate (Cisbio) and 1:400 (final concentration) of anti-6His-D2 antibody FRET acceptor conjugate (Cisbio) to a well of 384 well plate and incubated for 60 minutes at RT. The HTRF was read-out on a Tecan M1000 using a 340 nm excitation wavelength and a 665±10 nm emission filter. […]

- binding result [2]: binds
B3: DARPin® protein #68 (designed binder)
chain: DLGKKLLQAARAGQLDEVRELLKAGADVNAKDQAGLTPLHIAAATGHLEIVEVLLKAGADVNAKDFSGLTPLHLAAFEGHLEIVEVLLKAGADVNAKDQHGQTPLHLAAWTGHLEIVEVLLKAGADVNAQDKSGKTPADLAARAGHQDIAEVLQKAA
notes: CD70-specific domain; screened as crude extract (vector pMPDV25)

- binding result [2]: binds
B4: DARPin® protein #69 (designed binder)
chain: DLGYKLLQAAYDGQDDEVRILLAAGADVNAKDSRGQTPLHYAASIGHLEIVEVLLKAGADVNAKDDHGWTPLHLAAWSGHLEIVEVLLKAGADVNAQDQEGTTPADLAAVQSHEDIAEVLQKAA
notes: as for B3

More lines, now with the values behind:

B1: DARPin® protein #64 (designed binder)
chain: DLGWKLLDAAEIGQDDEVRILLAAGADVNAKDKQGITPLHIAAAHGHLEIVEVLLKAGADVNAKDEIGRTPLHLAAFKGHLEIVEVLLKAGADVNAQDIIGETPADLAAVRGHEDIAEVLQKAA
notes: CD123-specific domain; screened as crude extract
- binding result [1]: binds

B2: DARPin® protein #63 (designed binder)
chain: DLGKKLLQAARAGQLDEVRELLKAGADVNAKDQYGRTPLHLAAIKGHLEIVEVLLKAGADVNAKDSLGYTPLHLAAVEGPLEIVEVLLKAGADVNAKDAYGQTPLHIAAAWGHLEIVEVLLKAVADVNAQDKSGKTPADLAARAGHQDIAEVLQKAA
notes: as for B1
- binding result [1]: binds

— patent publication US20240254229A1 (Molecular Partners, published 2024)
